Test results as given in patent US11306331B2, “Processes for the production of hydroxycinnamic acids using polypeptides having tyrosine ammonia lyase activity” (CysBio ApS, priority 2014, dated 2022).

Key:
[1] = substrate: N[C@@H](Cc1ccccc1)C(=O)O; assay: purified protein, by the assay type; settings: other: RsTAL, 30° C, 1.56 μM to 200 μM tyrosine or 193 μM to 25 mM phenylalanine, pH 7.5
Description: (§5) Enzymatic assays were performed in 200 μL volumes in wells in a UV transparent 96-well plate, by following the increase in absorbance at 315 nm (pHCA) or 295 nm (CA). The reaction mixtures contained 2 μg of purified protein and were initiated by adding 1 mM tyrosine or 6 mM after equilibration to 30° C. The enzymatic activity was calculated as U/g, where U is defined as μmol substrate converted per minute.

[2] = substrate: N[C@@H](Cc1ccc(O)cc1)C(=O)O; assay: purified protein, by the assay type; settings: other: RsTAL, 30° C, 1.56 μM to 200 μM tyrosine or 193 μM to 25 mM phenylalanine, pH 7.5
Description: as §5

[3] = substrate: N[C@@H](Cc1ccccc1)C(=O)O; assay: In vitro kinetics of purified His-tagged SeSam8 (tyrosine/phenylalanine ammonia lyase activity, absorbance at 315/295 nm); type: biochemical, Saccharothrix espanaensis; settings: other: SeSam8, 30° C, 1.56 μM to 200 μM tyrosine or 193 μM to 25 mM phenylalanine, pH 7.5
Excerpt: (§1) Four of the enzymes were further purified by His-tag purification as follows. A DNA linker (5′ phosphorylated oligonucleotides CBJP559 and CBJP560, Table 5) was inserted in place of the sequence between the NdeI and BgIII site in plasmid pCDFDuet-1. This would result in the addition of the amino acids MAHHHHHHENLYFQ (SEQ ID NO: 11) to the N-terminal end of the polypeptides. The resulting plasmid was amplified with primers CBJP575 and CBJP576 (table 5) and the genes were amplified and combined using the Gibson reaction (New England Biolabs). The PCR amplification used the same reverse primers as in example 1, but the forward primers matching the His-tag site of the linker (Table 5). Plasmids carrying the genes (e.g. FjXAL, FIG. 4) were transformed into electrocompetent E. coli BL21(DE3)pLysS cells (Life Technologies) and selected on LB plates containing 50 ug/mL streptomycin.
(§2) Strains expressing His-tagged versions of the enzymes were grown in LB media overnight at 37° C. and diluted into fresh LB media with 1 mM IPTG and growth was propagated overnight (approximately 18 h) at 30° C. Cells were harvested by centrifugation at 8000 rpm for 8 minutes, and disrupted by shearing into a buffer (50 mM Tris-HCl, 10 mM imidazole, 500 mM NaCl, 10% glycerol, pH 7.5). The homogenate was clarified by centrifugation at 10000 g for 10 min at 4° C., and the supernatant was loaded onto Ni2+-NTA resin column on an Äkta Pure system connected to a F9-C fraction collector (GE). Finally the fractions containing the purified polypeptide was dialyzed overnight against a buffer containing 50 mM Tris-HCl pH 7.5, 150 mM NaCl and 10% glycerol, flash-frozen in liquid nitrogen and stored at −80° C.
(§3) Enzymatic assays were performed in 200 μL volumes in wells in a UV transparent 96-well plate, by following the increase in absorbance at 315 nm (pHCA) or 295 nm (CA). […] The enzymatic activity was calculated as U/g, where U is defined as μmol substrate converted per minute.

[4] = substrate: N[C@@H](Cc1ccc(O)cc1)C(=O)O; assay: as above; type: biochemical, Saccharothrix espanaensis; settings: other: SeSam8, 30° C, 1.56 μM to 200 μM tyrosine or 193 μM to 25 mM phenylalanine, pH 7.5
Excerpt: as §1, §2, §3

[5] = tested on: E. coli BL21(DE3)pLysS cells; assay: Titers of hydroxycinnamic acids in supernatants of E. coli cultures expressing TAL homologs; type: cell-based, Escherichia coli; settings: 16 hours, 37° C., duplicate
Description: E. coli strains described in Example 1 were used. M9 medium with 0.2% glucose and 0.5 mM IPTG also containing either tyrosine (204 μM), L-dopa (194 μM) or 3-O-methyldopa (262 μM) was transferred as 3-mL aliquots into a 24-well deep-well plate (Enzyscreen). Aliquots were taken for HPLC before the wells were inoculated with 200 μL of overnight cultures of the strains. The plates were placed at 37° C. with shaking for 16 hours. Samples of the supernatant were withdrawn after two rounds of centrifugation. The samples were subjected to HPLC along with chemical standards as described in Example 1. p-coumaric acid, caffeic acid and ferulic acid was measured by absorbance at 333 nm. Tyrosine, L-dopa and 3-O-methyldopa were measured by fluorescence (excitation at 274 nm, emission at 303 nm).
There was no measurable product in the medium before inoculation.

[6] = tested on: Saccharomyces cerevisiae CEN.PK102-5B; assay: Specific production of pHCA and CA by S. cerevisiae expressing TAL enzymes; type: cell-based; settings: 72 h, 30° C., +/- standard deviation
Excerpt: A number of the previously characterized enzymes were characterized when expressed in Saccharomyces cerevisiae. Genes encoding HaXAL1 and FjXAL were synthesized with codon optimization for S. cerevisiae available by GeneArt (Life Technologies), and were named HaXAL1 Sc and FjXALSc. Genes were amplified using the oligonucleotide (refer to specific name) shown in Table 6, and inserted by uracil-excision into the vector pCfB132 together with the PPGK1 promoter amplified by primers PPGK1_fw and PPGK1_rv (Jensen et al., 2014). The finished plasmids were transformed into Saccharomyces cerevisiae CEN.PK102-5B (MAT a ura3-52 his3Δ1 leu2-3/112 MAL2-8c SUC2) using a standard lithium acetate transformation protocol and selected for on synthetic drop-out media plates lacking uracil.
Cells were grown in SC medium without uracil, and diluted into Delft medium or Feed-In-Time (FIT) medium (m2p-labs) supplemented with leucine and histidine. After 72 h of incubation at 30° C. with shaking, samples were taken for the analysis of optical density at 600 nm and for clarification of the supernatant, which was analyzed by HPLC as described in example 1. The specific production was calculated as micromolar (μM) concentration per unit of optical density of the culture at 600 nm and is shown in Table 4.

[7] = substrate: N[C@@H](Cc1ccccc1)C(=O)O; assay: In vitro kinetics of purified His-tagged HaXAL1 (tyrosine/phenylalanine ammonia lyase activity, absorbance at 315/295 nm); type: biochemical, Herpetosiphon aurantiacus; settings: other: HaXAL1, 30° C, 1.56 μM to 200 μM tyrosine or 193 μM to 25 mM phenylalanine, pH 7.5
Description: (§4) The tyrosine ammonia lyase activity may for instance be determined in accordance to the following method: Enzymatic assays are performed in 200 μL volumes in wells in a UV transparent 96-well plate, by following the increase in absorbance at 315 nm (pHCA) using spectrophotometry or HPLC with UV detection. The reaction mixtures contain 2 μg of purified protein and are initiated by adding 1 mM tyrosine or 6 mM after equilibration to 30° C. The enzymatic activity is calculated as U/g, where U is defined as μmol substrate converted per minute. Negative controls contain no purified protein. Kinetic constants Km and vmax are determined from assays containing 1.56 μM to 200 μM tyrosine. See also Kyndt et al. (2002).
as §1, §2, §3

[8] = substrate: N[C@@H](Cc1ccc(O)cc1)C(=O)O; assay: as above; type: biochemical, Herpetosiphon aurantiacus; settings: other: HaXAL1, 30° C, 1.56 μM to 200 μM tyrosine or 193 μM to 25 mM phenylalanine, pH 7.5
Description: as §4, §1, §2, §3

[9] = tested on: E. coli BL21(DE3)pLysS cells; assay: Specific production of pHCA and CA by E. coli expressing TAL/PAL enzymes; type: cell-based, Escherichia coli; settings: 24 h after supplementation, +/- standard deviation
Description: Plasmids carrying the genes were transformed into electrocompetent E. coli BL21(DE3)pLysS cells (Life Technologies) and selected on LBplates containing 50 ug/mL streptomycin. The strains were grown in M9 minimal media containing glucose as a carbon source, and expression was induced by adding 1 mM IPTG at an optical density at 600 nm of 0.6. After three hours of growth at 30° C. the cultures were supplemented with 2 mM tyrosine, phenylalanine or histidine. After further 24 hours, samples were withdrawn for determination of the optical density at 600 nm and for the isolation of the supernatant.
The concentration of pHCA and CA in the supernatant was quantified by high performance (HPLC) and compared to chemical standards. HPLC was done on a Thermo setup using a HS-F5 column and mobile phases: 5 mM ammonium formate pH 4.0 (A) and acetonitrile (B) at 1.5 mL min-1, using a gradient elution starting at 5% B. From 0.5 min after injection to 7 min, the fraction of B increased linearly from 5% to 60%, and between 9.5 min and 9.6 the fraction of B decreased back to 5%, and remaining there until 12m pHCA and CA were quantified by measuring absorbance at 333 nm and 277 nm, respectively. The production was tested without addition of precursors or the addition of either phenylalanine or tyrosine to the growth medium.
The specific production was calculated as micromolar (μM) concentration per unit of optical density of the culture at 600 nm, and standard deviations were calculated based on triplicate experiments. HaXAL1, HaXAL2 and FjXAL are the most specific enzymes and those that reach the highest yields.

B1: Rhodobacter sphaeroides RsTAL (Protein GI 126464011), His-tagged (N-terminal tag SEQ ID NO: 11) (Cereibacter sphaeroides 2.4.1) (protein)
chain: MLAMSPPKPAVELDRHIDLDEAHSVASGGARIVLAPPARDRCRASEARLGAVIREARHVYGLTTGFGPLANRLVSGENVRTLQANLVHHLASGVGPVLDWTTARAMVLARLVAIAQGASGASEGTIARLIDLLNSELAPAVPMRGTVGASGDLTPLAHMVLCLQGRGDFLDRDGTRLDGAEGLRRGRLQPLDLSHRDALALVNGTSAMTGIALVNAHACRHLGNWAVALTALLAECLGGRTEAWAAALSDLRPHPGQKDAAARLRARVDGSARVVRHVIAERRLGASDIGTEPEAGQDAYSLRCAPQVLGAGFDTLAWHDRVLTIELNAVTDNPVFPPDGSVPALHGGNFMGQHVALTSDALATAVTVLAGLAERQIARLTDERLNRGLPPFLHRGPAGLNSGFMGAQVTATALLAEMRATGPASIHSISTNAANQDVVSLGTIAARLCREKIDRWAEILAILALCLAQAAELRCGSGLDGVSPAGKKLVQALREQFPPLETDRPLGQEIAALATHLLQQSPV
[1]
  Km: 2400 µM
  kcat: 0.0597 s⁻¹
  kcat/Km: 24.6 M⁻¹ s⁻¹
[2]
  Km: 5.6 µM

B2: Saccharothrix espanaensis SeSam8 (Protein GI 433607630), His-tagged (N-terminal tag SEQ ID NO: 11) (Saccharothrix espanaensis) (protein)
chain: MTQVVERQADRLSSREYLARVVRSAGWDAGLTSCTDEEIVRMGASARTIEEYLKSDKPIYGLTQGFGPLVLFDADSELEQGGSLISHLGTGQGAPLAPEVSRLILWLRIQNMRKGYSAVSPVFWQKLADLWNKGFTPAIPRHGTVSASGDLQPLAHAALAFTGVGEAWTRDADGRWSTVPAVDALAALGAEPFDWPVREALAFVNGTGASLAVAVLNHRSALRLVRACAVLSARLATLLGANPEHYDVGHGVARGQVGQLTAAEWIRQGLPRGMVRDGSRPLQEPYSLRCAPQVLGAVLDQLDGAGDVLAREVDGCQDNPITYEGELLHGGNFHAMPVGFASDQIGLAMHMAAYLAERQLGLLVSPVTNGDLPPMLTPRAGRGAGLAGVQISATSFVSRIRQLVFPASLTTLPTNGWNQDHVPMALNGANSVFEALELGWLTVGSLAVGVAQLAAMTGHAAEGVWAELAGICPPLDADRPLGAEVRAARDLLSAHADQLLVDEADGKDFG
[3]
  Km: 2200 µM
  kcat: 0.00883 s⁻¹
  kcat/Km: 4.03 M⁻¹ s⁻¹
[4]
  Km: 4.8 µM

B3: Herpetosiphon aurantiacus HaXAL1 tyrosine ammonia lyase (Protein GI 159898407), SEQ ID NO: 2, His-tagged (N-terminal tag SEQ ID NO: 11) (Herpetosiphon … (protein)
chain: MSTTLILTGEGLGIDDVVRVARHQDRVELTTDPAILAQIEASCAYINQAVKEHQPVYGVTTGFGGMANVIISPEEAAELQNNAIWYHKTGAGKLLPFTDVRAAMLLRANSHMRGASGIRLEIIQRMVTFLNANVTPHVREFGSIGASGDLVPLISITGALLGTDQAFMVDFNGETLDCISALERLGLPRLRLQPKEGLAMMNGTSVMTGIAANCVHDARILLALALEAHALMIQGLQGTNQSFHPFIHRHKPHTGQVWAADHMLELLQGSQLSRNELDGSHDYRDGDLIQDRYSLRCLPQFLGPIIDGMAFISHHLRVEINSANDNPLIDTASAASYHGGNFLGQYIGVGMDQLRYYMGLMAKHLDVQIALLVSPQFNNGLPASLVGNIQRKVNMGLKGLQLTANSIMPILTFLGNSLADRFPTHAEQFNQNINSQGFGSANLARQTIQTLQQYIAITLMFGVQAVDLRTHKLAGHYNAAELLSPLTAKIYHAVRSIVKHPPSPERPYIWNDDEQVLEAHISALAHDIANDGSLVSAVEQTLSGLRSIILFR
[5]; M9 + 3-O-methyldopa (262 μM)
  Titer of ferulic acid: 0.6 ± 0.0 µM
[5]; M9 + L-dopa (194 μM)
  Titer of caffeic acid: 6.9 ± 1.3 µM
[5]; M9 + tyrosine (204 μM)
  Titer of p-coumaric acid: 81 ± 1.2 µM
[6]; Delft + Tyr (10 mM)
  Specific production of CA: 0 ± 0 μM OD600-1
  Specific production of pHCA: 110 ± 15 μM OD600-1
[6]; Delft medium
  Specific production of CA: 0 ± 0 μM OD600-1
  Specific production of pHCA: 31 ± 3.2 μM OD600-1
[6]; FIT + Tyr (10 mM)
  Specific production of CA: 0 ± 0 μM OD600-1
  Specific production of pHCA: 120 ± 10 μM OD600-1
[6]; FIT medium
  Specific production of CA: 0 ± 0 μM OD600-1
  Specific production of pHCA: 140 ± 13 μM OD600-1
[7]
  Km: 22000 µM
  kcat: 0.128 s⁻¹
  kcat/Km: 6.1 M⁻¹ s⁻¹
[8]
  Km: 16 µM
[9]; M9 + Phe (2 mM)
  Specific production of CA: 1.1 ± 0.2 μM OD600-1
  Specific production of pHCA: 36 ± 14 μM OD600-1
[9]; M9 + Tyr (2 mM)
  Specific production of CA: 0 ± 0 μM OD600-1
  Specific production of pHCA: 130 ± 26 μM OD600-1
